Experimental data as given in the Human Domainome abundance scans (Beltran et al. 2025).
± gives the uncertainty stated by the source.

B1: COUP transcription factor 1, residues 83 to 159; numbered along this chain, P10589 (parent)
chain: HIECVVCGDKSSGKHYGQFTCEGCKSFFKRSVRRNLTYTCRANRNCPIDQHHRNQCQYCRLKKCLKVGMRREAVQRG

Variants of: B1
Assay: abundance fitness (aPCA) (normalised: wild type 0, dead -1); higher = more abundant; growth selection in yeast, the domain comes from the species named
Details: Homo sapiens

Row | Variant | abundance fitness
1 | V5Q | 0.252 ± 0.2
2 | V6L | -0.889 ± 0.15
3 | V6Q | -0.802 ± 0.29
4 | V6P | -0.705 ± 0.19
5 | V6G | -0.807 ± 0.091
6 | V6Y | -0.439 ± 0.31
7 | E72L | -0.317 ± 0.044
8 | E72C | -0.337 ± 0.064
9 | E72Y | -0.177 ± 0.078
10 | E72W | -0.248 ± 0.05
11 | E72F | -0.316 ± 0.078
12 | E72M | -0.262 ± 0.052
13 | K25E | 0.183 ± 0.047
14 | K25F | 0.168 ± 0.086
15 | K25C | 0.087 ± 0.074
16 | K25D | 0.183 ± 0.075
17 | K25H | 0.283 ± 0.1
18 | K14Q | 0.274 ± 0.2
19 | K14S | 0.174 ± 0.14
20 | K14E | 0.417 ± 0.11
21 | Y38K | -0.831 ± 0.23
22 | Y38V | -0.257 ± 0.081
23 | Y38W | -0.658 ± 0.15
24 | R33Q | 0.272 ± 0.071

Row | Variant | abundance fitness
25 | R33D | 0.013 ± 0.072
26 | R33G | -0.029 ± 0.044
27 | R33F | -0.51 ± 0.26
28 | R33E | 0.099 ± 0.052
29 | R33I | 0.086 ± 0.16
30 | R33W | 0.068 ± 0.058
31 | G17V | -0.421 ± 0.069
32 | M69Q | -0.831 ± 0.11
33 | M69N | -0.864 ± 0.19
34 | M69C | -0.38 ± 0.11
35 | M69I | -0.484 ± 0.099
36 | M69P | -0.661 ± 0.097
37 | M69S | -0.783 ± 0.079
38 | C56A | -0.552 ± 0.098
39 | C56H | -0.6 ± 0.2
40 | T20H | -0.541 ± 0.16
41 | T20C | 0.163 ± 0.064
42 | T20N | -0.191 ± 0.14
43 | T20D | -1.13 ± 0.34
44 | T20P | -0.402 ± 0.087
45 | A42S | 0.047 ± 0.084
46 | A42F | -0.282 ± 0.3
47 | A73I | -0.239 ± 0.092
48 | A73S | -0.02 ± 0.039

Row | Variant | abundance fitness
49 | A73F | 0.02 ± 0.061
50 | A73D | 0.112 ± 0.054
51 | A73G | -0.025 ± 0.031
52 | A73P | -0.11 ± 0.05
53 | S12H | -0.096 ± 0.088
54 | S12Q | 0.007 ± 0.064
55 | S12V | 0.076 ± 0.043
56 | S12L | -0.247 ± 0.049
57 | R30A | -0.091 ± 0.18
58 | R30N | -0.028 ± 0.22
59 | R30V | 0.08 ± 0.12
60 | R30H | -0.359 ± 0.49
61 | R71M | 0.151 ± 0.045
62 | R71Y | 0.089 ± 0.062
63 | R71L | -0.039 ± 0.038
64 | R71H | -0.103 ± 0.084
65 | R71V | -0.019 ± 0.037
66 | R71T | 0.02 ± 0.045
67 | Y16E | -0.05 ± 0.081
68 | Y16W | 0.132 ± 0.068
69 | D49G | -0.108 ± 0.046
70 | D49P | -0.323 ± 0.067
71 | D49V | -0.141 ± 0.052
72 | D49M | -0.175 ± 0.11

Row | Variant | abundance fitness
73 | H52W | -0.263 ± 0.075
74 | H52D | -0.092 ± 0.053
75 | H52M | -0.019 ± 0.052
76 | H52Q | 0.095 ± 0.047
77 | H52S | -0.102 ± 0.043
78 | H52K | -0.035 ± 0.055
79 | R41E | 0.107 ± 0.064
80 | R41F | -0.239 ± 0.2
81 | R41L | 0.228 ± 0.054
82 | R41G | 0.188 ± 0.042
83 | R41Y | 0.088 ± 0.15
84 | G8L | 0.042 ± 0.076
85 | G8K | 0.165 ± 0.15
86 | G8N | -0.045 ± 0.49
87 | R34Y | -0.263 ± 0.22
88 | R34L | -0.161 ± 0.09
89 | R34C | -0.759 ± 0.34
90 | I2W | -0.502 ± 0.17
91 | I2A | -0.829 ± 0.29
92 | I2E | -0.379 ± 0.18
93 | G23Y | 0.152 ± 0.45
94 | G23K | -0.044 ± 0.19
95 | G23Q | 0.031 ± 0.12
96 | G23H | 0.287 ± 0.17

Row | Variant | abundance fitness
97 | G23D | 0.418 ± 0.14
98 | V74T | -0.112 ± 0.053
99 | V74W | -0.3 ± 0.057
100 | V74S | -0.199 ± 0.044
101 | N35G | -0.003 ± 0.062
102 | N35S | -0.508 ± 0.24
103 | H1C | -0.258 ± 0.19
104 | H1Y | 0.262 ± 0.48
105 | R76C | 0.082 ± 0.068
106 | R76V | -0.009 ± 0.045
107 | R76Y | 0.046 ± 0.075
108 | R76P | -0.197 ± 0.07
109 | R76S | -0.048 ± 0.046
110 | R44S | -0.024 ± 0.043
111 | R44T | 0.054 ± 0.055
112 | R44E | 0.082 ± 0.041
113 | R44C | -0.153 ± 0.073
114 | Q55M | -0.126 ± 0.072
115 | Q55E | 0.19 ± 0.053
116 | Q55H | 0.017 ± 0.052
117 | Q55P | -0.109 ± 0.058
118 | Q55K | -0.021 ± 0.073
119 | Q55T | -0.101 ± 0.051
120 | Q55L | -0.059 ± 0.045

Row | Variant | abundance fitness
121 | Q55Y | -0.039 ± 0.062
122 | T37R | 0.092 ± 0.05
123 | T37F | -0.101 ± 0.12
124 | T37N | 0.081 ± 0.057
125 | T37W | 0.138 ± 0.064
126 | T37C | -0.048 ± 0.081
127 | L36P | 0.03 ± 0.089
128 | L36Q | -0.113 ± 0.1
129 | F27D | -0.783 ± 0.28
130 | F27L | -0.819 ± 0.15
131 | S26F | -0.275 ± 0.23
132 | S26G | 0.238 ± 0.056
133 | S26H | -0.137 ± 0.19
134 | S26L | -0.035 ± 0.11
135 | E3M | -0.07 ± 0.084
136 | E3P | -0.279 ± 0.086
137 | E3I | -0.108 ± 0.12
138 | N43H | -0.319 ± 0.19
139 | N43L | -0.054 ± 0.068
140 | N43A | 0.152 ± 0.06
141 | N43Q | 0.027 ± 0.1
142 | N43D | 0.278 ± 0.099
143 | F19S | 0.032 ± 0.065
144 | F19W | -0.01 ± 0.06

Row | Variant | abundance fitness
145 | F19H | -0.037 ± 0.12
146 | F19R | -0.098 ± 0.052
147 | F19C | -0.216 ± 0.12
148 | C40E | -0.683 ± 0.093
149 | C40Y | -0.704 ± 0.21
150 | C40T | -0.503 ± 0.12
151 | C40H | -1.21 ± 0.33
152 | C40D | -0.51 ± 0.15
153 | C40L | -0.786 ± 0.086
154 | C40S | -1.08 ± 0.17
155 | C40V | -0.861 ± 0.077
156 | C40Q | -0.848 ± 0.17
157 | G68V | -0.671 ± 0.059
158 | G68F | -0.609 ± 0.12
159 | G68M | -0.624 ± 0.084
160 | G68D | -0.728 ± 0.11
161 | G68N | -0.211 ± 0.085
162 | G68Y | -0.436 ± 0.12
163 | R70A | 0.023 ± 0.038
164 | R70D | 0.163 ± 0.052
165 | R70K | 0.153 ± 0.05
166 | R70Q | 0.112 ± 0.053
167 | R70I | 0.046 ± 0.16
